Reference: patent publication US20230321189A1, “THERAPEUTIC AGENTS, PHARMACEUTICAL COMPOSITIONS, AND ASSOCIATED BIOMARKERS BASED ON TRK-B” (INSTITUTO DE MEDICINA MOLECULAR JOÃO LOBO ANTUNES, priority 2020, published 2023)
“Also recorded” adds a separate entry of the source. Where no end group is shown, it is not given here.

How the values were obtained:
[1] = test system: bEnd.3 brain endothelioma cells; assay: BEB in vitro integrity assay (FD4 probe); type: in vitro ADME; settings: FD4 added after each TAT-TrkB translocation assay, 2 h
Method: (§1) To evaluate the ability of the TAT-TrkB peptide to translocate the BEB, the inventors used a well-established in vitro model^15. It comprises a transwell system with an insert in which bEnd.3 brain endothelioma cells (ATTCC-CRL-2299, Lot. 59618606) are cultured for 9 days. In this model, the apical chamber replicates the blood compartment, while the basolateral chamber replicates the brain compartment (FIG. 7a). For these experiments, 6-FAM was fused to the N-terminal of the TAT-TrkB peptide, in order to detect the peptide by fluorescence. The TAT-TrkB-6-FAM peptide (5 μM, diluted in DMEM without phenol red) was delivered to the apical compartment. After incubation times of 1 h, 4 h and 24 h, in different inserts, medium from the apical and basolateral compartments was collected and fluorescence measured at 495 nm excitation and 517 nm emission wavelengths using the Varioskan LUX Multimode microplate reader (Thermo Scientific, Rockford, IL, USA ThermoFisher Scientific). Peptide translocation was quantified as the fluorescence detected in the basolateral compartment normalized to the sum of the fluorescence detected in both compartments. […] For these, FD4 fluorescent probe (diluted in DMEM without phenol red to a final absorbance below 0.1) was added to the apical compartment of the same inserts and incubated for 2 h. […]

[2] = test system: bEnd.3 brain endothelioma cells; settings: TAT-TrkB-6-FAM 5 μM apical; 1 h, 4 h and 24 h
Method: as §1

TrkB-FL [3] = target: T1, TrkB-FL (Rattus norvegicus, UniProt Q63604); assay: Aβ-driven TrkB-FL cleavage in primary neuronal cultures (Western blot); type: cell-based; design: Western-blot of neuronal cultures; endogenous in cells; host or cells: primary cortical neuronal cultures from E17-E18 embryos; settings: DIV8 neuronal cultures, peptide without linker, 20 μM (1, 5, 20 and 50 μM)
Method: Primary neuronal cultures were prepared as routinely in the lab^6. Briefly, animals were deeply anesthetized with isoflurane ([…], Barcelona, Spain) in an anaesthesia chamber before being sacrificed by decapitation. Embryos (E17-E18) were rapidly removed from the uterus and brains were dissected and placed in cold Ca^2+- and Mg^2+-free Hank's Balanced Salt Solution (HBSS) (Gibco, Paisley, UK). Cerebral cortex was isolated, mechanically fragmented and digested with 0.025% (wt/vl) trypsin solution (Gibco, Paisley, UK) in HBSS for 15 min at 37° C. After digestion, cells were precipitated by centrifugation at 1200 rpm. The supernatant was removed and 20% Fetal Bovine Serum (FBS) (Gibco, Paisley, UK) was added to HBSS. […] To obtain single cells and avoid cellular clusters or tissue fragments, the suspension was filtered with a nylon filter (BD FalconTM Cell Strainer 70 μM, Thermo Fisher Scientific, Waltham, MA, USA) and cell density was determined by counting cells in a 0.4% trypan blue solution using a hemacytometer. […] Finally, immunoreactivity was detected using the ECL system (ECL chemiluminescence detection system, GE Healthcare), an appropriate exposure time in a ChemiDoc (Bio-Rad, XRS^+) and quantified by the digital densitometry tool of ImageJ 1.45 software (Bethesda, MD, USA). […]

TrkB-FL [4] = target: T1, TrkB-FL; assay: Calpain in vitro assay, adult rat brain cortex homogenate (Western blot); type: biochemical; design: rat cortical tissue or neuronal cultured cells were homogenized in Radio Immuno Precipitation Assay (RIPA) buffer; from tissue; host or cells: adult rat brain cortex homogenate (100 μg protein); settings: peptide without linker 20 μM, m-calpain 1 or 2 EU, CaCl2 2 mM
Method: For calpain enzymatic assays, rat cortical tissue or neuronal cultured cells were homogenized in Radio Immuno Precipitation Assay (RIPA) buffer, containing 50 mM Tris-HCl [pH=7.5], 150 mM NaCl, 5 mM ethylenediamine tetra-acetic acid, 0.1% sodium dodecyl sulfate (SDS), 1% [v/vl] Triton X-100, protease inhibitors (Roche, Penzberg, Germany) and phosphatase inhibitors (10 mM NaF and 5 mM Na3VO4). For tissue homogenization, Vibracell VC250 Ultrasonic Liquid Processor was used (Sonics & Materials, Inc, CT, USA). Protein concentration was measured using Bio-Rad DC reagent (Bio-Rad Laboratories, Berkeley, CA, USA) after homogenates clarification by centrifugation (16,000 g, 4° C., 10 min). The purified rat m-calpain (1 or 2 enzymatic units, EU) (Calbiochem, San Diego, CA, USA) was incubated for 30 min at 25° C. in a 100 μL final volume of lysis buffer containing the homogenate protein (100 μg for rat brain cortex experiments and 65 μg for neuronal cultured cells), 2 mM of CaCl2 and TAT-TrkB peptide (5, 20 or 50 μM). […] Finally, immunoreactivity was detected using the ECL system (ECL chemiluminescence detection system, GE Healthcare), an appropriate exposure time in a ChemiDoc (Bio-Rad, XRS^+) and quantified by the digital densitometry tool of ImageJ 1.45 software (Bethesda, MD, USA). […]

[5] = listed as TAT-TrkB without a linker sequence

T1 sequence (Q63604 32-821): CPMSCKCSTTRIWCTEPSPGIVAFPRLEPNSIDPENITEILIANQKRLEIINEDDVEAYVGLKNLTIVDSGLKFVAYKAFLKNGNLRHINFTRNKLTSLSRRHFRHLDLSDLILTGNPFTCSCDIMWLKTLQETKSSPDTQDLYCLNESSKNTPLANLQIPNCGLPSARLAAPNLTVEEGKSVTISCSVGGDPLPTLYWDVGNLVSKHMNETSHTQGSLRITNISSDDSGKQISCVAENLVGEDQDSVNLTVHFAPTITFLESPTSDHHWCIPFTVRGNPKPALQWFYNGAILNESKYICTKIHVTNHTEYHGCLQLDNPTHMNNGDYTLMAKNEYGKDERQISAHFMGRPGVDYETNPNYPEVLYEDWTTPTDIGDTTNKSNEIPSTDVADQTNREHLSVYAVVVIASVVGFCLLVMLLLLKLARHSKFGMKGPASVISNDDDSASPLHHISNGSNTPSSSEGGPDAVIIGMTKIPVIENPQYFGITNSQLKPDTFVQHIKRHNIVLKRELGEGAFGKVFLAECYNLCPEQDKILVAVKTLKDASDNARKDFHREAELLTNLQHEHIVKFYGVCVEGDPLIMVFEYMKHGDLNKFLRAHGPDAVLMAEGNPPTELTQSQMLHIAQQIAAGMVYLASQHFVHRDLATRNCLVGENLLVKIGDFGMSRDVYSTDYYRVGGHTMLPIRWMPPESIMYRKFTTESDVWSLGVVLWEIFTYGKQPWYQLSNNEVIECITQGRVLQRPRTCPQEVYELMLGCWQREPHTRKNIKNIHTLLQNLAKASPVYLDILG

Row | Sequence | BEB integrity (clearance of FD4 from the apical chamber) [1] | translocation of the BEB [2] | TrkB-FL cleavage and TrkB-ICD formation with Aβ incubation (TrkB-FL [3]) | TrkB-FL cleavage and TrkB-ICD formation with Aβ incubation (TrkB-FL [3]; [5]) | TrkB-FL cleavage and TrkB-ICD formation by m-calpain (TrkB-FL [4]) | TrkB-FL cleavage and TrkB-ICD formation by m-calpain (TrkB-FL [4]; [5])
1 | YGRKKRRQRRRKKFGITNSQLKP [TAT-TrkB] | without affecting its integrity; also recorded: negligible | translocated the BEB overtime |  |  |  | 
2 | YGRKKRRQRRRPQYFGITNSQLKPDTF [SEQ ID NO: 25, first version of TAT-TrkB without the linker] |  |  | not able to prevent TrkB-FL cleavage | not prevented | not able to prevent TrkB-FL cleavage | not prevented
